Patent US20240239878A1 (SHANGHAI QILU PHARMACEUTICAL RESEARCH AND DEVELOPMENT CENTRE, published 2024)
Substitutions are numbered along the chain they refer to.

T1: human DLL3 antigen protein (Kactus Biosystems, Cat. No. DLL-HM103) (human, UniProt Q9NYJ7 27-492)
T1 sequence: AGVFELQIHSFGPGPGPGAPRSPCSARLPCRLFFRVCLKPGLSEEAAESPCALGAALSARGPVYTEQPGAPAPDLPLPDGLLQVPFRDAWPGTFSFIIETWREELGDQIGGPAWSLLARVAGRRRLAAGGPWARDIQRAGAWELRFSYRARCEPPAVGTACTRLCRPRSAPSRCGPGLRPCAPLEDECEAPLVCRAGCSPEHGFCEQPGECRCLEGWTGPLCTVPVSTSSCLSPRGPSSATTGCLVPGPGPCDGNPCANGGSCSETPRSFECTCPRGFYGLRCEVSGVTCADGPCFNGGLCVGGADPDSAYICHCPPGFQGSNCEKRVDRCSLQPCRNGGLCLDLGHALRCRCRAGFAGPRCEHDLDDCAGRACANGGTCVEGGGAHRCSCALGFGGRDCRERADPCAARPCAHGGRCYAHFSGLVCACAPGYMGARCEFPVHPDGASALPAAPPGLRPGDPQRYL

T2: Cynomolgus monkey DLL3 antigen protein (Kactus Biosystems, Cat. No. CM103) (Cynomolgus monkey, UniProt Q9NYJ7 27-490 (human entry))
T2 construct: also called cyno DLL3
T2 chain: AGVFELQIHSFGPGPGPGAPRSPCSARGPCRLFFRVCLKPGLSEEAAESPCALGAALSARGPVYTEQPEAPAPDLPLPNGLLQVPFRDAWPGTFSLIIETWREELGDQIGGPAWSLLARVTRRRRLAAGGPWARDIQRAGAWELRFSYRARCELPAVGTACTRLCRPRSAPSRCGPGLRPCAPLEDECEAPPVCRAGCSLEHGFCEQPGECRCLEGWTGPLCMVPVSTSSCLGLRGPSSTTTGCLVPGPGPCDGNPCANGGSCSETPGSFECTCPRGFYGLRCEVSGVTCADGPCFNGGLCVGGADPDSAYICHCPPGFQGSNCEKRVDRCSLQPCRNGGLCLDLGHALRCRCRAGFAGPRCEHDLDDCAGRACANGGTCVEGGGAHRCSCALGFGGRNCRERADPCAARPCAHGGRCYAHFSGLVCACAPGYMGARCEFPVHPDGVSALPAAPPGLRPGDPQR

B1: H2-39E2D11-AS humanized antibody variant (antibody, V domains shown)
VH: QVQLVQSGAEVKKPGASVKVSCKASGYTFISYWITWVRQAPGQGLEWMGDIYPGSGSTTNYNEKFKSRVTMTRDTSTSTVYMELSSLRSEDTAVYYCARETTVGGAYAMDYWGQGTLVTVSS
VL: EIVLTQSPATLSLSPGERATLSCRASQSINNNLHWYQQKPGQAPRLLIKYVSQSISGIPARFSGSGSGTDFTLTISSLEPEDFAVYYCQQTASWPLTFGGGTKLEIK
notes: Variant of H2-39E2D11; Its constant regions are not restated
B2: H2-39E2D11-QS humanized antibody variant (antibody, V domains shown)
VH: B1 VH
VL: B1 VL with A92Q
notes: as for B1
B3: H2-39E2D11-NA humanized antibody variant (antibody, V domains shown)
VH: B1 VH
VL: B1 VL with A92N, S93A
notes: as for B1
B4: DLL3-3 VHH (IPTG-induced supernatant, with his and c-Myc labels) (VHH)
VHH: DVQLVESGGGSVQAGGSLKLSCKSPTYTISSGYMGWFRQAPGKEREGVAAIYIGGSTTLYADSVKGRFTISADNAEKTVYLQMNTLKPEDSAMYYCAAQLRPNSAYHPLDGRKYNYWGQGTQVTVSS
notes: not shown: his and c-Myc labels
B5: DLL3-276 VHH (IPTG-induced supernatant, with his and c-Myc labels) (VHH)
VHH: QVQLVESGGGSVQAGGSLNLSCATSGSTASTTYMGWFRQAPGKGREGVAIIYTARDNPWYANSVKGRFIISQDNAKKTLYLQMNTLKPEDTATYYCAATLANPTRTAWGQGTLVTVSS
notes: as for B4
B6: DLL3-26 VHH (IPTG-induced supernatant, with his and c-Myc labels) (VHH)
VHH: QVQLVESGGGSVQAGGSLRLSCAASGDIYSSSYVGWFRQAPGKEREGVAIIYTSGDSTYYANSVKGRFTISQDKAKKTLYLQMNSLKPEDTAMYYCAARFAIDNSNYWGQGTQVTVSS
notes: as for B4
B7: DLL3-12 VHH (IPTG-induced supernatant, with his and c-Myc labels) (VHH)
VHH: QVQLVESGGGLVQPGESLRLSCAGSGFAFSSYDMHWVRQAPGKDFEWVSSISRDGRGPRYADFVKGRFTISKDNGRNMLYLQLNSLEIEDTAMYYCSKGYPIMGGTTQGTQVTVSS
notes: as for B4
B8: DLL3-122 VHH (IPTG-induced supernatant, with his and c-Myc labels) (VHH)
VHH: QVQLVESGGGSVQAGGSLRLSCTASGDTYRSYCMGWFRKAPGKEREGVADIVSDGSTSYADSVKGRFTISKDNAKNTLYLQMNSLKPEDTAMYYCAVDRGGSGGYCYTGRYDYWGQGTQVTVSS
notes: as for B4

Target: T1, human DLL3 antigen protein (Kactus …)
Experiment: affinity assay with human DLL3 antigen protein (kinetics; method not restated, Biacore as in Example 18 implied)

Row | Kd | koff | kon | Binder
1 | 1760 pM | 0.000362 s⁻¹ | 206000 M⁻¹ s⁻¹ | B1
2 | 229 pM | 3.91e-05 s⁻¹ | 171000 M⁻¹ s⁻¹ | B2
3 | 484 pM | 0.00012 s⁻¹ | 247000 M⁻¹ s⁻¹ | B3

Target: T1, human DLL3 antigen protein (Kactus …)
Experiment: ELISA, antigen coated at 2 ug/ml, induced supernatant, anti-Myc HRP
Description: (§1) In order to obtain a positive antibody that can cross-bind to human DLL3 and Cynomolgus monkey DLL3, the above library was amplified and added to the M13K07 helper phage to assemble phage. 1×10¹² pfu camel immune library phage was added and incubated with biotinylated human DLL3 proteins (8 μg/mL) bound to magnetic beads for 1 h at room temperature. After washing with 0.05% PBST to remove unbound phage, the phage specifically bound to DLL3 was eluted with 100 mM triethylamine. After gradient dilution, log-phase growth of E. coli SS320 was infected and spread on an ampicillin plate overnight at 37° C. A single clone was picked for IPTG-induced expression and the supernatant was used for ELISA detection. The ELISA plate was coated with 2 μg/ml human DLL3 or Cynomolgus monkey DLL3 antigen respectively overnight at 4° C. The plate was washed with 0.05% PBST 3 times, then blocked with 5% skimmed milk for 1 h at room temperature, and washed with 0.05% PBST 3 times. Then 30 μL of induced supernatant was added to each well, and a culture medium was added to a negative control well. The plate was incubated for 1 h at room temperature. Finally, anti-Myc HRP detection was performed (VHH expressed by IPTG induction has his and c-Myc labels). The amino acid sequences of the five heavy chain antibody variable regions of the present disclosure were obtained by sequencing clones from the ELISA assay that bound human and Cynomolgus monkey DLL3 with OD450 values greater than 1.0 and ELISA OD450 ratios greater than 3 to the medium as negative control, with the results shown in Table 1: […]

Row | ELISA OD450 ratio to the medium negative control | OD450 | Binder
4 | > 3 fold | > 1 OD450 | B4
5 | > 3 fold | > 1 OD450 | B5
6 | > 3 fold | > 1 OD450 | B6
7 | > 3 fold | > 1 OD450 | B7
8 | > 3 fold | > 1 OD450 | B8

Target: T2, Cynomolgus monkey DLL3 antigen protein …
Experiment: as above
Description: as §1

Row | ELISA OD450 ratio to the medium negative control | OD450 | Binder
9 | > 3 fold | > 1 OD450 | B4
10 | > 3 fold | > 1 OD450 | B5
11 | > 3 fold | > 1 OD450 | B6
12 | > 3 fold | > 1 OD450 | B7
13 | > 3 fold | > 1 OD450 | B8

Target: T2, Cynomolgus monkey DLL3 antigen protein …
Experiment: affinity assay with Cynomolgus monkey DLL3 antigen protein (kinetics; method not restated, Biacore as in Example 18 implied)

Row | Kd | koff | kon | Binder
14 | 1630 pM | 0.000427 s⁻¹ | 262000 M⁻¹ s⁻¹ | B1
15 | 434 pM | 8.59e-05 s⁻¹ | 198000 M⁻¹ s⁻¹ | B2
16 | 346 pM | 8.09e-05 s⁻¹ | 233000 M⁻¹ s⁻¹ | B3
